Test results from the DeepSol protein solubility set.

Experiment: soluble on expression in E. coli; label from the status in PepcDB or PDB records
For “MAHHHHHHSLCKAFCSCYSYHYHHREKMGIKEYYDKLAKSYDKLYKNKYMRIVEREIIQKEIKDGDFVLDIGCGTGEQLKILNNAVGLDISLEMAKIAKNKTNKPVVVANAEFLPFKNKSFDKAISFFGALNHCNLKRALREVNRVLKDDGIFIFTVANIYDIKWIIKNILKGNFKKVKNAMKKRKGTITKVIDGEKIKVKTRFYDFKEVEDALKKEGFEVVYTFGTNITNSPLDKFIYKSFLKNFASYIGFVAKKVKNREG”, the “soluble on expression in E. coli” value was “not soluble”. In the case of “MAHHHHHHSLIDLHIHSNYSDGQGSVEEIARRAKERGLKAIAIVDHSIELPFGLTEKKARMREIEIENAASLYGIKIYSGIECSINAAGEIVLPDFDFDFIIASVHEFVYGQAYYERVIRCLESHDVDVLGHPFSPLFGFDGRLAEMDEKLLDVVEERGVAVELNSSHKSPQDEFLQLCRDRKIAYSIGSDAHSLSGVGEVGWSVEKAKRYMAGAKLFTPEG”, the “soluble on expression in E. coli” value is reported as “not soluble”. For “MAHHHHHHSLIISSLTNPNFKVGLPKVIAEVCDYLNTLDLNALENGRHDINDQIYMNVMEPETAEPSSKKAELHHEYLDVQVLIRGTENIEVGATYPNLSKYEDYNEADDYQLCADIDDKFTVTMKPKMFAVFYPYEPHKPCCVVNGKTEKIKKLVVKVPVKLIEG”, the “soluble on expression in E. coli” value was “not soluble”. In the case of “MAHHHHHHSLRVVSGEFGGRPLKTLDGKITRPTSDKVRGAIFNMIGPYFNGGRVLDLFAGSGGLAIEAVSRGMSAAVLVEKNRKAQAIIQDNIIMTKAENRFTLLKMEAERAIDCLTGRFDLVFLDPPYAKETIVATIEALAAKNLLSEQVMVVCETDKTVLLPKEIATLGIWKEKIYGISKVTVYVNEG”, the “soluble on expression in E. coli” value is reported as “soluble”. In the case of “MAHKSKSPYLMYPEKEPFPILNKHSHYDHLFEEMYELEEKGEILVFRITEEYRPKYVYTRTGRIKVIPTNKLWHHKSCGQCGNIPGYPASIFWFMNKFGLDYLNEPHQTSCTAWNYHGSGTSNPVALAAVWLRNMHQAWKTGYYPLIHCGTSFGSYKETREQLIFNKELREAVKPILKKLGRLTEDGRIVIPQEIVHYSEWVHAMRDGNSRPLRKRKESPKE”, the “soluble on expression in E. coli” value is reported as “not soluble”. In the case of “MAHTPTMLAAAAPFMPEATGVDPALDALLAGLQAHPARIDPKYLYDALGSSLFAAITQLPEYYPTRCEAEIFATHLEAIARHTGPVRTLIDLGAGDCAKAERLLPCLRPQRYVPIDISTDFLGQAVARVRRAHPWLDVLPLGRDLNAGLDLPEAIDAQGRLFFYPGSSIGNLDPDAALALLASLRAQAGVSGGLLIGVDRVKARAIVEPAYDDALHLTGAFNLNLLRHVNSVLGSDFDVRDWTHVALYNEPRSRMEMHLQARSDIRVRWPGGQRRFQADERIHTENSYKYTIERFVDLLRRAGYGDIRYWSDARDWFSVFSARA”, the “soluble on expression in E. coli” value is reported as “soluble”. With “MAIAPQQIQERLKQEQYQKFVVADIGNFPHCLAQTPEGIASGQRYQKYSTNSLSRTPPFSQWGAPQLLTPKSAQEYIKFAQQRNKKSSFKIDGEAVRVSECSNFAYHSAGVLLDDPQIRTQYDVAVIGSMHSNGRYLHNITLLVPKGSRLPQPPQQLTAEVFPIGTLIVDPWAVGMGHPPEQALAIPKEQFAYNRSLFPATVNYQSALDESLTSTRTGQLTPYTGTPSRTGRQEVRAESQFPGTRRPVSATIPGNFAAYHELWRNAFQEIMNDPRHQLHRNDVEYKKIHAIRTVLDDYTKGGNTWWAKFRRIFTFHWNRHHVKVVDDIVKEIDAGNYTTSRALVDRLDNLAISLGSKLNPKGTLKEQIGFIKIQEQNPVEEIENLSRPNLT” the “soluble on expression in E. coli” value was “not soluble”. With “MAIKGLDQAIDNLSRVRKNAIPAASAMTINRVATTAINQSSSQVARETKVRRKLVKERSRLKRATVRNPNAKIIVNRGDLPVIKLGIRMLGRRPNSILKAGQHRYQRAFIQRLKNGRWHVMQRVAGKNRYPIDVVKIPMAAPLKQAFDENVDRIRCERLPGELASALKQQLRIAIKR” the “soluble on expression in E. coli” value was “not soluble”. For “MAILITGGAGYIGSHTCVELLNNNYKIIVVDNLSNSSIESLNRVKEITGKQFEFYKENVLNREKMNEIFLENNIEAVIHFAGFKAVGESTTTPLAYYYNNIISAIVLCDVMQKHNVKNFIFSSSATVYGIPKTLPITEEFPLSVTNPYGQTKLMIEQIMRDVAKADDEWSIALLRYFNPFGAHQSGRIGEDPNGIPNNLMPYVTQVAVGKLKELNIFGNDYPTKDGTGVRDYIHVVDLAKGHVKALEKVLKTKGIEAYNLGTGKGYSVLEMVKAFEKVSGKKIPYKVIGRRPGDVAICFADVSKAKRELGWEAEYGLEEMCVDSWRWQVNNKNGYQMI”, the “soluble on expression in E. coli” value was “not soluble”. For “MAILYSKMKRSVTIKLQPSKEQEKILFELADVGAKVWNRVNYLRRQEFFEGKLVDFNRTEKIVYEEFKQETGSATVQQIARKNAEAWRSFFTNCPSGSSQNHQTTLEHHHHHH”, the “soluble on expression in E. coli” value was “not soluble”.
